The text below walks through data of PMC6274577 (2016).

Where “and” joins values, the source holds several entries; their conditions need not be identical. Identical values can stand only once.

Assay [1] concerns the target sIL-11Rα ECD (Homo sapiens) (UniProt Q14626). Put plainly: SPR. The following applies: cited from earlier work.
For assay [2], the target named is recombinant extracellular domain of human interleukin-11 receptor subunit α (M1-V363) with a fused polyhistidine tag at the C-terminus (human) (UniProt Q14626).
Assay [3] deals with IL-11Rα (Mus musculus) (UniProt Q64385). Briefly: cell binding. The following applies: cited from earlier work.
IL-11Rα (Mus musculus), sequence (Q64385 24-372): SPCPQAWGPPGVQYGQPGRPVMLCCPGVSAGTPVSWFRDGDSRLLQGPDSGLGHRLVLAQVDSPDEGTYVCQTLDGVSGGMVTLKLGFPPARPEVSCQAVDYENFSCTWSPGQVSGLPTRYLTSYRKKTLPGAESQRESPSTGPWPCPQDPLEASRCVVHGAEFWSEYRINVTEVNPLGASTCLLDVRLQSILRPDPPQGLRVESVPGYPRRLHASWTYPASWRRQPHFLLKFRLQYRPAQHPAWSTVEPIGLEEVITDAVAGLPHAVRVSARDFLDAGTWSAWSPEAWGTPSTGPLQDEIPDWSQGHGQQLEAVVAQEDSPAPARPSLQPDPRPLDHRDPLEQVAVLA
Assay [4] addresses T1, sIL-11Rα ECD (Homo sapiens, UniProt Q14626).
T1 chain: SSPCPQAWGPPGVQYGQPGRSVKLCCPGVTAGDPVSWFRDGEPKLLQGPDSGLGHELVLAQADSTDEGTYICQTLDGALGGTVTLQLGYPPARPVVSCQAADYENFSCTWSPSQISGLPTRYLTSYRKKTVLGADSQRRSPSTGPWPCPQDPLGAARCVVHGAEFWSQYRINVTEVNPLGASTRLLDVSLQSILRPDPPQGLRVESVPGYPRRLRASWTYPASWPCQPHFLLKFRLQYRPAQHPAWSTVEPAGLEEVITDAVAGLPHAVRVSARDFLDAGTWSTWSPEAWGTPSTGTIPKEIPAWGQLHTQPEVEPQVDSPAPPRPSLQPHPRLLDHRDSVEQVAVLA
Briefly: SPR.

Assay [5] deals with macaque recombinant interleukin-11 (rIL-11), Macaca fascicularis, mature protein lacking Pro1 (Macaca fascicularis) (UniProt P20808). Briefly: SPR; biotinylated rIL-11 immobilised on NeutrAvidin NLC sensor chip (up to 2000 RU); 5-80 nM sIL-11Rα as analyte; 25 °C; PBS, 0.05% TWEEN 20, pH 7.4; heterogeneous ligand model (two ligand populations). Background: Surface plasmon resonance follows binding to a sensor surface in real time, without labels.

Assay [6] concerns the target murine recombinant interleukin-11 (rIL-11), Mus musculus, mature protein lacking Pro1 (Mus musculus) (UniProt P47873). The assay is described as above.

A word on the Kd: it is the constant that tells how readily two partners part at equilibrium. Turning to IL-11 (from UniProt P20809), the Kd in assay [1] is 21.9 nM and 7 nM.
Consider “murine recombinant interleukin-11 (rIL-11), Mus musculus, mature protein lacking Pro1 (from UniProt P47873 23-199) (ligand)”, for which the EC50 of STAT3 activation (SEAP secretion, QUANTI-Blue assay) in HEK-Blue IL-6 cells stably transfected with human IL-11Rα gene in assay [2] came to 0.084 nM.
As for IL-11 (from UniProt P47873), in assay [3], the Kd is 10 nM.
As to “macaque recombinant interleukin-11 (rIL-11), Macaca fascicularis, mature protein lacking Pro1 (from UniProt P20808 23-199) (ligand)”, the EC50 of STAT3 activation (SEAP secretion, QUANTI-Blue assay) in HEK-Blue IL-6 cells stably transfected with human IL-11Rα gene in assay [2] stood at 0.006 nM.

B1: IL-11 (protein)
chain: PGPPPGSPRASPDPRAELDSTVLLTRSLLEDTRQLTIQLKDKFPADGDHNLDSLPTLAMSAGALGALQLPSVLTRLRADLLSYLRHVQWLRRAMGSSLKTLEPELGTLQTRLDRLLRRLQLLMSRLALPQLPPDPPAPPLAPPSSTWGGIRAAHAILGGLHLTLDWAVRGLLLLKTRL
On to B1, for which, in assay [4], the Kd was 8.9 nM and 4.2 nM.

B2: recombinant extracellular domain of human interleukin-11 receptor subunit α (M1-V363) with a fused polyhistidine tag at the C-terminus (receptor)
chain: SSPCPQAWGPPGVQYGQPGRSVKLCCPGVTAGDPVSWFRDGEPKLLQGPDSGLGHELVLAQADSTDEGTYICQTLDGALGGTVTLQLGYPPARPVVSCQAADYENFSCTWSPSQISGLPTRYLTSYRKKTVLGADSQRRSPSTGPWPCPQDPLGAARCVVHGAEFWSQYRINVTEVNPLGASTRLLDVSLQSILRPDPPQGLRVESVPGYPRRLRASWTYPASWPCQPHFLLKFRLQYRPAQHPAWSTVEPAGLEEVITDAVAGLPHAVRVSARDFLDAGTWSTWSPEAWGTPSTGTIPKEIPAWGQLHTQPEVEPQVDSPAPPRPSLQPHPRLLDHRDSV
Turning to B2, in assay [5], the Kd1 (KD, ligand population 1) came to 4.2 nM; the Kd2 (KD, ligand population 2) worked out at 8.9 nM; the kd1 (koff, ligand population 1) worked out at 0.000815 s⁻¹; the kd2 (koff, ligand population 2) was found to be 0.0038 s⁻¹. Further, in assay [6], the Kd1 (KD, ligand population 1) stood at 2.2 nM; the Kd2 (KD, ligand population 2) was 14.6 nM; the kd1 (koff, ligand population 1) came to 0.0007 s⁻¹; the kd2 (koff, ligand population 2) was found to be 0.0061 s⁻¹.
